Among the data in publication PMC4211736 are stoichiometry N values, retold here.

Assay [1] deals with G29K/A30K(3xK)-APP695wt. The assay can be described thus: SDS-PAGE and Western blot (SDS-stable dimer); CHO cells lysed in RIPA buffer (0.1% SDS); 3-8% Tris-Acetate gel; blot probed with anti-APP C-terminal antibody A8717. (Immunoblotting shows a protein as a band on a membrane.)
Assay [2] deals with recombinant 3xK-C100Flag. The assay can be described thus: SDS-PAGE, Coomassie stain and Western blot (SDS-stable multimers); recombinant protein run on 4-12% Bis-Tris gels; monomer, dimer and trimer bands cut out, eluted in 150 mM sodium citrate pH 6.8 and rerun; Coomassie stain and blot (6E10, Ab5).
For assay [3], the target named is recombinant WT-C100Flag. The description is as above.

Where “and” joins values, the source holds several entries; their conditions need not be identical. Equal values may be shown once.

Broadly, the stoichiometry N is the number of molecules, sites or subunits per partner or assembly.

Sequence of recombinant WT-C100Flag (P05067 18-701): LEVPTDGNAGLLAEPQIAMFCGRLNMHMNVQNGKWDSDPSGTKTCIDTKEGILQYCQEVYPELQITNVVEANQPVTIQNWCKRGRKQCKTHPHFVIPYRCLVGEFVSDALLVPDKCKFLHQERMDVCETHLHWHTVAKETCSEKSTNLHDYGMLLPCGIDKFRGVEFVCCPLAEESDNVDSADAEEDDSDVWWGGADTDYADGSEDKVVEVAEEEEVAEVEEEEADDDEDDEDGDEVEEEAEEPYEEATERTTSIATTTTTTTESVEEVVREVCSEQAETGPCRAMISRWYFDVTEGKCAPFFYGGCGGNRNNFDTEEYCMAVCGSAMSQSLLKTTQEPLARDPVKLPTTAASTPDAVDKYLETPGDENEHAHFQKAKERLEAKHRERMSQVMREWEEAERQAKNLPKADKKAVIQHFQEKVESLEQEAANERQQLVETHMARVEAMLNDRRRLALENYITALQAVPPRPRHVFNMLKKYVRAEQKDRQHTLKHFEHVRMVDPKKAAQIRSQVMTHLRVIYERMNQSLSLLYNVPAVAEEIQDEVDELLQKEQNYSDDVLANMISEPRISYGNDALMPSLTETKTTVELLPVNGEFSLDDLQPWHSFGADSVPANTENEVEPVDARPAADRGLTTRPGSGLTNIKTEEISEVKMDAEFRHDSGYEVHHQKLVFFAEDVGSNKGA

Substance “G29K/A30K(3xK)-APP695wt (natural protein)” had a stoichiometry N in assay [1] of 2. Take “recombinant 3xK-C100Flag (domain or fragment)”: in assay [2], the stoichiometry N was 2 and 3. Consider “recombinant WT-C100Flag (domain or fragment)”, for which the stoichiometry N in assay [3] was 2 and 3.
